One experiment concerns the target HLA-B*48:01. As to the kind of experiment: IEDB peptide-MHC binding, purified MHC/competitive/fluorescence; filed as Kd, often an IC50 or EC50 that approximates it; ≥ and ≤ were set here for values at or beyond the usual limits of such assays.
The next experiment has as its target HLA-A*02:19. As to the kind of experiment: IEDB peptide-MHC binding, purified MHC/direct/fluorescence; filed as Kd, often an IC50 or EC50 that approximates it; ≥ and ≤ were set here for values at or beyond the usual limits of such assays.
The target of the next experiment is HLA-A*02:12. The description is as above.
The target of the next experiment is HLA-A*68:02. The experiment is described as above.
The next experiment addresses HLA-A*02:16. Described as above.
Another experiment concerns the target HLA-A*02:03. The experiment is described as above.
For experiment [1], the target named is HLA-A*02:01. The experiment is described as above.
The next experiment addresses HLA-B*18:01. The experiment is described as above.
Another experiment deals with HLA-B*27:03. Described as above.
Another experiment deals with HLA-B*57:01. Described as above.
The target of another experiment is HLA-B*51:01. Described as above.
A further experiment concerns the target HLA-A*03:01. The description is as above.
Another experiment has as its target HLA-B*46:01. The experiment is described as above.
The target in the next experiment is HLA-A*02:11. The experiment is described as above.
The next experiment addresses HLA-B*15:01. The experiment is described as above.
Experiment [2] addresses HLA-A*69:01. Described as above.
For a further experiment, the target named is HLA-B*15:17. As to the kind of experiment: IEDB peptide-MHC binding, purified MHC/competitive/fluorescence; filed as Kd, often an IC50 or EC50 that approximates it; ≥ and ≤ were set here for values at or beyond the usual limits of such assays.
Another experiment has as its target HLA-B*07:02. The description is as above. The conditions noted are these: source organism: Influenza A virus (A/Fort Monmouth/1/1947-mouse adapted(H1N1)).
The target of the next experiment is HLA-C*07:02. Description: IEDB peptide-MHC binding, purified MHC/direct/fluorescence; filed as Kd, often an IC50 or EC50 that approximates it; ≥ and ≤ were set here for values at or beyond the usual limits of such assays. The conditions noted are these: source organism: Entamoeba histolytica HM-1:IMSS.
The target in the next experiment is HLA-A*26:01. The experiment is described as above.
The next experiment has as its target HLA-A*24:03. The description is as above.
Another experiment has as its target HLA-B*39:01. The experiment is described as above.
For a further experiment, the target named is HLA-B*40:01. Described as above. The conditions noted are these: source organism: Marburg virus - Musoke, Kenya, 1980.
In a further experiment the target is HLA-A*31:01. Described as above. The conditions noted are these: source organism: Marburg virus - Musoke, Kenya, 1980.
For the next experiment, the target named is HLA-B*58:01. Described as above. The conditions noted are these: source organism: Marburg virus - Musoke, Kenya, 1980.
For the next experiment, the target named is HLA-B*27:05. The experiment is described as above. Conditions: source organism: Marburg virus - Musoke, Kenya, 1980.
A further experiment deals with HLA-B*08:02. The description is as above. The conditions noted are these: source organism: Orthomarburgvirus marburgense.
The next experiment deals with HLA-A*11:01. Described as above. Conditions: source organism: Marburg virus - Musoke, Kenya, 1980.
The target in experiment [3] is HLA-A*01:01. The description is as above. The conditions noted are these: source organism: Marburg virus - Musoke, Kenya, 1980.
In experiment [4] the target is HLA-A*02:01. As to the kind of experiment: IEDB peptide-MHC binding, purified MHC/competitive/fluorescence; filed as Kd, often an IC50 or EC50 that approximates it; ≥ and ≤ were set here for values at or beyond the usual limits of such assays. The conditions noted are these: source organism: Orthomarburgvirus marburgense.
The target in a further experiment is HLA-A*02:06. The experiment is described as above. Conditions: source organism: Orthomarburgvirus marburgense.
Experiment [5] deals with HLA-A*69:01. Described as above. Conditions: source organism: Orthomarburgvirus marburgense.
The next experiment concerns the target HLA-A*32:01. Description: IEDB peptide-MHC binding, purified MHC/competitive/radioactivity; filed as Kd, often an IC50 or EC50 that approximates it; ≥ and ≤ were set here for values at or beyond the usual limits of such assays. The conditions noted are these: source organism: Mammarenavirus machupoense.
The target in the next experiment is HLA-A*29:02. The experiment is described as above. Conditions: source organism: Mammarenavirus machupoense.
The target of a further experiment is HLA-A*30:01. Described as above. The conditions noted are these: source organism: Mammarenavirus machupoense.
The target of a further experiment is HLA-A*30:02. The description is as above. The conditions noted are these: source organism: Mammarenavirus machupoense.
Experiment [6] deals with HLA-A*01:01. Described as above. The conditions noted are these: source organism: Mammarenavirus machupoense.
[7] abbreviates: source organism: Rickettsia sibirica 246.
Setting [8] is: source organism: Salmonella enterica subsp. enterica serovar Typhimurium.
The mark [9] stands for this setting: source organism: Orthomarburgvirus marburgense.
Setting [10] is: source organism: Marburg virus - Musoke, Kenya, 1980.
The mark [11] stands for this setting: source organism: Encephalitozoon cuniculi GB-M1.
Setting [12] is: source organism: Mammarenavirus machupoense.

Consider GQAARDKHL, for which, in the experiment with HLA-B*48:01 (source organism: Burkholderia vietnamiensis G4), the Kd – broadly, the constant that tells how readily two partners part at equilibrium – is at least 20 µM.

Consider APVESMALF, for which the Kd with HLA-A*02:19 (setting [7]), with HLA-A*02:12 (setting [7]), with HLA-A*68:02 (setting [7]), with HLA-A*02:16 (setting [7]), with HLA-A*02:03 (setting [7]) and with HLA-A*02:01 [1] (setting [7]) was at least 20 µM in each case. Moreover, the Kd with HLA-B*18:01 (setting [7]), with HLA-B*27:03 (setting [7]), in the experiment with HLA-B*57:01 (setting [7]), in the experiment with HLA-B*51:01 (setting [7]), with HLA-A*03:01 (setting [7]) and with HLA-B*46:01 (setting [7]) was at least 20 µM in each case. Besides, the Kd is at least 20 µM in the experiment with HLA-A*02:11 (setting [7]), at least 20 µM with HLA-B*15:01 (setting [7]), at least 20 µM in the experiment with HLA-A*69:01 [2] (setting [7]) and 15.1 µM in the experiment with HLA-B*15:17 (setting [7]).

FPSSSYRRPV came in with a Kd in the experiment with HLA-B*07:02 of 0.0016 µM.

For AQELVGHQL, the Kd in the experiment with HLA-B*48:01 (source organism: Escherichia coli O139:H28 str. E24377A) was at least 20 µM.

Consider FQFTLHWEL, for which the Kd in the experiment with HLA-C*07:02 is 2.05 µM; in the experiment with HLA-B*48:01 (source organism: Entamoeba histolytica HM-1:IMSS), 0.726 µM.

LAMLVLHQV: the Kd in the experiment with HLA-A*26:01 (setting [8]), in the experiment with HLA-A*24:03 (setting [8]), in the experiment with HLA-B*39:01 (setting [8]), in the experiment with HLA-B*18:01 (setting [8]), with HLA-B*27:03 (setting [8]) and in the experiment with HLA-B*57:01 (setting [8]) was at least 20 µM in each case. In addition, the Kd with HLA-B*51:01 (setting [8]) is 0.416 µM; with HLA-A*03:01 (setting [8]), at least 20 µM; in the experiment with HLA-B*46:01 (setting [8]), at least 20 µM; in the experiment with HLA-B*15:01 (setting [8]), at least 20 µM.

For the sequence LYKTIVNIW, the Kd was at least 20 µM with HLA-A*26:01 (setting [9]); at least 20 µM in the experiment with HLA-B*40:01; at least 20 µM in the experiment with HLA-A*31:01; at least 20 µM in the experiment with HLA-B*58:01; 0.16 µM with HLA-A*24:03 (setting [10]); at least 20 µM with HLA-B*39:01 (setting [9]). For the same sequence, the Kd with HLA-B*18:01 (setting [10]), with HLA-B*57:01 (setting [10]), with HLA-B*27:05, in the experiment with HLA-A*03:01 (setting [10]), with HLA-B*08:02 and with HLA-A*11:01 was at least 20 µM each time. Further, the Kd is at least 20 µM in the experiment with HLA-B*46:01 (setting [10]); at least 20 µM with HLA-B*15:01 (setting [10]); at least 20 µM with HLA-A*01:01 [3]; at least 20 µM with HLA-B*48:01 (setting [9]); 0.0509 µM with HLA-A*02:01 [4]; 0.11 µM with HLA-A*02:06. For the same sequence, the Kd is at least 20 µM in the experiment with HLA-B*15:17 (setting [9]) and 1.58 µM with HLA-A*69:01 [5].

In the case of MPFDPSELV, the Kd in the experiment with HLA-A*02:19 (setting [11]), in the experiment with HLA-A*26:01 (setting [11]), in the experiment with HLA-A*02:12 (setting [11]), with HLA-A*02:16 (setting [11]), with HLA-A*02:03 (setting [11]) and in the experiment with HLA-A*02:01 [1] (setting [11]) was at least 20 µM in each case. The Kd with HLA-A*24:03 (setting [11]) is at least 20 µM; in the experiment with HLA-B*18:01 (setting [11]) it was at least 20 µM; with HLA-B*27:03 (setting [11]), at least 20 µM; with HLA-B*57:01 (setting [11]) it was at least 20 µM; in the experiment with HLA-B*51:01 (setting [11]) it was 0.074 µM; in the experiment with HLA-A*03:01 (setting [11]), at least 20 µM. Besides, the dissociation constant (Kd) in the experiment with HLA-B*46:01 (setting [11]), with HLA-A*02:11 (setting [11]) and with HLA-B*15:01 (setting [11]) was at least 20 µM throughout.

In the case of LITEQFLCY, the Kd with HLA-A*02:19 (setting [12]), in the experiment with HLA-A*26:01 (setting [12]), with HLA-A*02:12 (setting [12]), with HLA-A*68:02 (setting [12]), in the experiment with HLA-A*02:16 (setting [12]) and with HLA-A*02:03 (setting [12]) was at least 20 µM each time. Further, the Kd in the experiment with HLA-A*02:01 [1] (setting [12]), in the experiment with HLA-B*39:01 (setting [12]), with HLA-B*18:01 (setting [12]), with HLA-B*27:03 (setting [12]), in the experiment with HLA-B*57:01 (setting [12]) and in the experiment with HLA-B*51:01 (setting [12]) was at least 20 µM each time. Also, the Kd in the experiment with HLA-A*02:11 (setting [12]) was at least 20 µM; in the experiment with HLA-A*69:01 [2] (setting [12]), at least 20 µM; with HLA-A*32:01, at least 25 µM; with HLA-A*29:02 it was 0.00132 µM; with HLA-A*30:01 it was 6.33 µM; in the experiment with HLA-A*30:02 it was 1.86 µM. For the same sequence, the Kd with HLA-A*01:01 [6] turned out to be 0.0647 µM.

Values taken from the Immune Epitope Database (IEDB).
